Assay results reported in patent publication US20130039933A1 (UNIVERSITY OF MIAMI, published 2013).

B1: Full length DAD1 (defender against apoptotic cell death) fused to the GAL4 activation domain (other, human, UniProt P61803 1-113, looked up, not shown: large carriers)
chain: MSASVVSVISRFLEEYLSSTPQRLKLLDAYLLYILLTGALQFGYCLLVGTFPFNSFLSGFISCVGSFILAVCLRIQINPQNKADFQGISPERAFADFLFASTILHLVVMNFVG
notes: Yeast two-hybrid prey; also called DAD I
B2: control vector (AD) (other, yeast, UniProt P04386 768-881, looked up)
chain: ANFNQSGNIADSSLSFTFTNSSNGPNLITTQTNSQALSQPIASSNVHDNFMNNEITASKIDDGNNSKPLSPGWTDQTAYNAFGITTGMFNTTTMDDVYNYLFDDEDTPPNPKKE
notes: Yeast two-hybrid negative control

Experiments:
[1] = target: T1, BD-hSTING-C (carboxyl region of STING, amino acids 173-379, fused to the binding domain of yeast GAL4) (yeast; human, UniProt P04386 1-147); assay: yeast two-hybrid screen
T1 construct: Yeast two-hybrid bait; also called pGBK-T7-hSTING-C; pGBKT7-STING C-terminal

[2] = target: T1, BD-hSTING-C (carboxyl region of STING, …); assay: yeast two-hybrid, high stringency plates (-Trp, -Leu, -Ade, -His)

| Binder | binding result [1] | binding result [2] |
| --- | --- | --- |
| B1 | binds | – |
| B2 | – | no binding |
